Measured values published in US20040265960A1 (Pfizer, published 2004).

B1: MUF scFv (scFv)
scFv: QVQLVQSGAEVKKPGSSVRVSCKASGGTFNIYSVSWVRQAPGQGLEWMGRIIPMRDIANYAQRFQGRVTLTADKSSGTAYMELRGLRSDDTAVYWCATLAGPLDSWGQGTLVTVSSGGGGSGGGGSGGGGSALSSELTQDPAVSVGLGQTVTITCQGGSLRQYYASWYQQKPGQAPVVVIYGKNKRPSGIPDRFSGTTSGNTASLTITGAQAEDEADYYCKSRDSSGNHPLYVFGAGTKLTVLGAAAHHHHHH
B2: MUF antibody (human IgG1 lambda) (antibody, V domains shown)
VH: QVQLVQSGAEVKKPGSSVRVSCKASGGTFNIYSVSWVRQAPGQGLEWMGRIIPMRDIANYAQRFQGRVTLTADKSSGTAYMELRGLRSDDTAVYWCATLAGPLDSWGQGTLVTVSS
VL: SSELTQDPAVSVGLGQTVTITCQGGSLRQYYASWYQQKPGQAPVVVIYGKNKRPSGIPDRFSGTTSGNTASLTITGAQAEDEADYYCKSRDSSGNHPLYVFGAGTKLTVLG
notes: also called MUF IgG; MuF IgG protein
B3: R18 scFv (scFv)
scFv: QVQLQESGGGLVQPGGSLRLSCAASGFTFSSYAMSWVRQAPGKGLEWVSGISGSGTSTYYADSVKGRFTISRDNSKNTLYLQMNSLRAEDTAVYYCATHISERPRGAFDIWGRGTMVTVSSGGGGSGGGGSGGGGSALSSELTQDPAVSVALGQTVRITCQGDSLRKYHATWYQQKPRQAPVLVVYGKNRRPSGIPDRFSGSSSGNTASLTITGAQAGDEADYYCNSRDTSGLHYVFGAGTKLTVLG
notes: also called hIL21R18; scFv R18 clone
B4: 18A5 scFv (scFv)
scFv: QVQLQESGPGLVKTSETLSLTCAVSGYSISSGYYWGWIRQPPGKGLEWIGSISHTGNTYYNPPLKSRVTISVDTSKNQFSLKLSSVTAADTAVYYCARGGGISRPEYWGKGTLVTVSSGGGGSGGGGSGGGGSALSSELTQDPPVSVALGQTVTLTCQGDSLRTYYASWYQQKSGQAPILLLYGKHKRPSGIPDRFSGSTSGDTASLTITGAQAEDEADYYCNSRDSSGNPHVLFGGGTQLTVLS
B5: 18G4 scFv (scFv)
scFv: EVQLVQSGAEVKKPGSSVKVSCKASGGTFNIYSVSWVRQAPGQGLEWMGRIIPMRDIANYAQRFQGRVTLTADKSSGTAYMELRSLRSDDTAVYWCATLAGPLDSWGRGTLVTVSSGGGGSGGGGSGGGGSALSSELTQDPAVSVALGQTVRITCQGDSLRTYYASWYQKRPGQAPILVMYGRNKRPSGIPDRFSGSFSGNRASLTITGAQAEDEADYYCKSRAYSGNLVEFGGGTKLTVLG
B6: 19F5 scFv (scFv)
scFv: EVQLVQSGAEVKKPGASVKVSCKASGYAFTDNYIHWVRQAPGQGLEWMGWINPKTGGTNYAQKFQGRVSMTRDTSINTAYMDLSRLTSDDTAVYYCTRSLSPYGGQLLYWGRGTMVTVSSGGGGSGGGGSGGGGSALSSELTQDPAVSVALGQTVRITCQGDSLRRYYASWFQQKPGQAPVLVIFGKNNRPSGIPDRFSASSSGNTASLTITGAQAEDEADYYCNSRDTSINHPVIFGGGTKLTVLG
B7: MU11 phage clone (scFv)
scFv: EVQLVQSGGGVVQPGRSLRLSCAASGFTFSSYGMHWVRQAPGKGLEWVAVISYDGSNKYYADSVKGRFTISRDNSKNTLYLQMNSLRDEDTAVYYCARHGQYALDIWGQGTMVTVSSGGGGSGGGGSGGGGSDIVMTQSPSTLSASVGDRVTITCRASQGISSWLAWYQQKPGRAPKVLIYKASTLESGVPSRFSGSGSGTDFTLTISSLQPEDFATYYCQQSYSTPWTFGQGTKLEIKRAA

How the values were obtained:
[1] = biological target: T1, human IL-21R expressed on cells (human, UniProt Q9HBE5 20-538); test: cell-based or functional assay
[2] = biological target: T1, human IL-21R expressed on cells; test: cell-based or functional assay; remark: listed apart in the source
[3] = biological target: T2, human IL-21R fusion protein (human, UniProt Q9HBE5 20-235, biotinylated in the assay of Example 11 (site not stated)); test: epitope competition assay: bio.hIL21R binding to immobilized MUF IgG (competitor), DELFIA
T2 construct: Soluble fusion protein (Wyeth); The extracellular domain is said to be about residues 20-235; also called soluble IL-21R fusion protein; biotinylated human IL-21R fusion protein
Method: The scFv clones 18A5, 19F5 and 18G4 were further tested in an epitope competition assay in order to determine whether they bound the same or a different epitope than MUF. ScFv-containing periplasmic extracts were prepared as described above for the various clones. Final buffer used was 50 mM MOPS, pH 7.4, 0.5 mM EDTA, 0.5 M sorbitol. The scFv-containing crude periplasmic extracts were screened for the ability to inhibit the binding of biotinlyated human IL-21R fusion protein (bio.hIL21R) to MuF IgG protein immobilized on plastic in a 96 well microtitre plate assay. Binding of bio.hIL21R was detected with Europium-labelled streptavidin and TRF detected using the DELFIA reagent kit (PerkinElmer). Positive clones were used in an epiope competition assay described herein.

[4] = biological target: T2, human IL-21R fusion protein; test: DELFIA competition: inhibition of human IL-21R fusion protein binding to captured IL-21-FLAG
Method: ScFv production was induced by addition of 1 mM IPTG to exponentially growing cultures and incubation overnight at 30° C. Crude scFv-containing periplasmic extracts (Griffiths et al.(1993) EMBO J., 12:725-734) were screened for the ability to inhibit the binding of human IL-21R fusion protein to human IL-21-FLAG tagged protein. Briefly, anti-FLAG antibody was immobilized onto plastic and used to capture FLAG-tagged human IL-21 protein. Binding of human IL-21R fusion protein was detected with a Europium-labelled antibody to the IL-21R fusion protein, and time resolved fluorescence was detected with the DELFIA reagent kit (PerkinElmer, Boston, Mass.).

[5] = biological target: T2, human IL-21R fusion protein; test: phage ELISA on coated IL-21R fusion protein
Method: To establish the specificity of the scFᵥ's for IL-21R, a phage ELISA was performed against the IL-21R fusion protein. Individual TG1 cell colonies from the second selection were transferred to microtiter wells containing 100 μl of -2TYAG medium. M13K07 helper phage ([…]) was added to the exponentially growing TG1 culture, and the samples were incubated for one hour at 37° C. Plates were centrifuged and supernatant was removed, then the remaining pellets were suspended in 100 μl of 2TYAG and incubated overnight at 30° C. with shaking. The next day, plates were centrifuged and phage supernatant was transferred to new microtiter plate wells. Phage was blocked in MPBS prior to ELISA.
Wells of microtiter plates were coated with IL-21R fusion protein or control fusion protein (0.5-2.5 μg/ml) and incubated overnight at 4° C. The next day, fusion protein solution was removed and wells were blocked for 1 hour in MPBS. Wells were washed with PBS, then 50 μl of blocked phage was added. Plates were incubated for 1 hour, then washed 3 times with PBST and 3 times with PBS. Anti-M13-HRP conjugate (Pharmacia, Peapack, N.J.) was added to wells, and the samples were incubated for one hour. Wells were washed 3 times with PBST and 3 times with PBS. […] The color signal was measured by reading absorbance at 450 nm using a microtiter plate reader.

T2 sequence (Q9HBE5 20-235): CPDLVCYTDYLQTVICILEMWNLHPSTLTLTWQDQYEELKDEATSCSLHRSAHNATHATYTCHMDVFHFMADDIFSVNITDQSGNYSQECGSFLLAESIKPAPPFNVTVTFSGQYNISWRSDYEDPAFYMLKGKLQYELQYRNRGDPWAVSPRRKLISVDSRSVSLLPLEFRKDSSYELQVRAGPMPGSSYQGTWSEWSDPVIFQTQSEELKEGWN
T1 sequence (Q9HBE5 20-538): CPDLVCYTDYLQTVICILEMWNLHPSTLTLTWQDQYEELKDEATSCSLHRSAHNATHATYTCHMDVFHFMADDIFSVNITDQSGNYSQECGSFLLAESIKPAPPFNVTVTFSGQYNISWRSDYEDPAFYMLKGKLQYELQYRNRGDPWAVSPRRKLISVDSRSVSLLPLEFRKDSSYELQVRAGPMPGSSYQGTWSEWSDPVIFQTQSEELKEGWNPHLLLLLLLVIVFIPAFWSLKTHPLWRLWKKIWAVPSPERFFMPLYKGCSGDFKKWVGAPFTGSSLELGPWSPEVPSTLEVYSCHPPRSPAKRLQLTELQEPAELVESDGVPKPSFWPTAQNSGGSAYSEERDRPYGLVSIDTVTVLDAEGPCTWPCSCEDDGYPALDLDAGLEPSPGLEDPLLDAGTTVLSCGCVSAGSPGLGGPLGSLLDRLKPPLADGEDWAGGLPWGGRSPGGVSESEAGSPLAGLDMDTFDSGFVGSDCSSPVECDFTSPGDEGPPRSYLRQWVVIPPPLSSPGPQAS

Row | Binder | IC50 Value (nM) ScFv, hBaf3Mu-1 cell proliferation assay [2] [nM] | IC50 [3] [nM] | other results
1 | B1 | 140 |  | IC50, inhibition of cell response to IL-21 (hBaf3Mu-1 proliferation) [1]: 268 nM
2 | B2 |  | 0.4 | IC50, inhibition of cell response to IL-21 (hBaf3Mu-1 proliferation) [1]: 3 nM
3 | B3 | 473 |  | IC50 [4]: 770 nM
4 | B4 | 213 | 114 | 
5 | B5 | 522 | 1.4 | 
6 | B6 | 91 |  | 
7 | B7 |  |  | binding result [5]: binds
